Residue numbers refer to the chain shown, from its start. Numbers in names are those of the source.

The labels stand for the following.
T1: NTD_(1-53)-sfGFP P22A (H. neapolitanus, UniProt O85042 1-53, P22A)
T1 construct: first 53 residues of CsoSCA, H. neapolitanus, with P22A; source: E. coli, purified (His-tag purification); not shown: sfGFP, C-terminal, kept; His tag, C-terminal, kept
T1 sequence (looked up): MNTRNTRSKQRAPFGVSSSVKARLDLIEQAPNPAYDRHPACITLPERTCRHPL

T2: NTD_(1-53)-sfGFP R23A (H. neapolitanus, UniProt O85042 1-53, R23A)
T2 construct: first 53 residues of CsoSCA, H. neapolitanus, with R23A; source: E. coli, purified (His-tag purification); not shown: sfGFP, C-terminal, kept; His tag, C-terminal, kept
T2 sequence (looked up): T1 sequence (looked up) with A22P, R23A

T3: CbbS, Rubisco small subunit (as in Rubisco-strep) (H. neapolitanus, UniProt P45686 1-110)
T3 construct: Rubisco small subunit CbbS, H. neapolitanus; residues M4-N110 modelled; Subunit of m2, written on its own for the contacts in the cryo-EM structure; source: E. coli, coexpressed with GroEL/ES, purified as Rubisco-strep
T3 sequence: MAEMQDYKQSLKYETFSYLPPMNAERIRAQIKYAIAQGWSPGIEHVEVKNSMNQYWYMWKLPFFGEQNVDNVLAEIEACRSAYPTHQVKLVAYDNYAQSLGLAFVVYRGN

B1: NTD1-53-sfGFP-His, first 53 residues of CsoSCA fused to superfolder GFP (domain or fragment, H. neapolitanus, UniProt O85042 1-53, looked up)
chain: T1 sequence (looked up) with A22P
notes: first 53 residues of CsoSCA, Halothiobacillus neapolitanus; source: E. coli (see Dataset S4), purified (His-tag purification)
B2: Rubisco-strep (H. neapolitanus CbbL8S8) (complex)
chain 1: MAVKKYSAGVKEYRQTYWMPEYTPLDSDILACFKITPQPGVDREEAAAAVAAESSTGTWTTVWTDLLTDMDYYKGRAYRIEDVPGDDAAFYAFIAYPIDLFEEGSVVNVFTSLVGNVFGFKAVRGLRLEDVRFPLAYVKTCGGPPHGIQVERDKMNKYGRPLLGCTIKPKLGLSAKNYGRAVYECLRGGLDFTKDDENINSQPFMRWRDRFLFVQDATETAEAQTGERKGHYLNVTAPTPEEMYKRAEFAKEIGAPIIMHDYITGGFTANTGLAKWCQDNGVLLHIHRAMHAVIDRNPNHGIHFRVLTKILRLSGGDHLHTGTVVGKLEGDRASTLGWIDLLRESFIPEDRSRGIFFDQDWGSMPGVFAVASGGIHVWHMPALVNIFGDDSVLQFGGGTLGHPWGNAAGAAANRVALEACVEARNQGRDIEKEGKEILTAAAQHSPELKIAMETWKEIKFEFDTVDKLDTQNR
chain 2: T3 sequence
notes: Rubisco large subunit CbbL, H. neapolitanus, alpha-carboxysomal Form IA; residues V3-E457 modelled in the cryo-EM maps; Rubisco small subunit CbbS, H. neapolitanus; residues M4-N110 modelled in the cryo-EM maps; Printed both as 'strep-Rubisco' and 'Rubisco-strep'; plasmid in Dataset S4; also called strep-Rubisco; WT; source: E. coli, coexpressed with GroEL/ES, purified (Strep-tag purification); …
B3: CbbL, Rubisco large subunit (as in Rubisco-strep) (natural protein, H. neapolitanus)
chain: B2 chain 1
notes: Rubisco large subunit CbbL, H. neapolitanus; residues V3-E457 modelled; Subunit of m2, written on its own for the contacts in the cryo-EM structure; also called CbbLA; CbbLB; source: E. coli, coexpressed with GroEL/ES, purified as Rubisco-strep
B4: Rubisco Y72A (complex, H. neapolitanus)
chain 1: B2 chain 1 with Y72A
chain 2: T3 sequence
notes: Rubisco large subunit CbbL, H. neapolitanus, with Y72A (the text places Y72 on CbbL); Rubisco small subunit CbbS, H. neapolitanus; Plasmid in Dataset S4; source: E. coli, coexpressed with GroEL/ES, purified (Strep-tag purification); copies: 8 + 8
B5: NTD_(1-53)-sfGFP (domain or fragment, H. neapolitanus, UniProt O85042 1-53, looked up)
chain: T1 sequence (looked up) with A22P
notes: first 53 residues of CsoSCA (unstructured N-terminal peptide), H. neapolitanus; Fused to monomeric superfolder GFP; Linker, if any, is in Dataset S4; also called NTD_(1-53)-sfGFP-His; source: E. coli, purified (His-tag purification); not shown: sfGFP, C-terminal, kept; His tag, C-terminal, kept
B6: Rubisco D99A (complex, H. neapolitanus)
chain 1: B2 chain 1 with D99A
chain 2: T3 sequence
notes: Rubisco large subunit CbbL, H. neapolitanus, with D99A (the text places D99 on CbbL); Rubisco small subunit CbbS, H. neapolitanus; Plasmid in Dataset S4; source: E. coli, coexpressed with GroEL/ES, purified (Strep-tag purification); copies: 8 + 8
B7: NTD_(1-50) peptide (CsoSCA residue 1-50) (peptide, UniProt O85042 1-50, looked up)
peptide: MNTRNTRSKQRAPFGVSSSVKPRLDLIEQAPNPAYDRHPACITLPERTCR
notes: first 50 residues of CsoSCA, H. neapolitanus; also called NTD peptide; N50 peptide
B8: CsoSCA-MBP (enzyme, H. neapolitanus, UniProt O85042 1-514, looked up)
chain: MNTRNTRSKQRAPFGVSSSVKPRLDLIEQAPNPAYDRHPACITLPERTCRHPLTDLEANEQLGRCEDSVKNRFDRVIPFLQVVAGIPLGLDYVTRVQELAQSSLGHTLPEELLKDNWISGHNLKGIFGYATAKALTAATEQFSRKIMSEKDDSASAIGFFLDCGFHAVDISPCADGRLKGLLPYILRLPLTAFTYRKAYAGSMFDIEDDLAQWEKNELRRYREGVPNTADQPTRYLKIAVYHFSTSDPTHSGCAAHGSNDRAALEAALTQLMKFREAVENAHCCGASIDILLIGVDTDTDAIRVHIPDSKGFLNPYRYVDNTVTYAQTLHLAPDEARVIIHEAILNANRSDGWAKGNGVASEGMRRFIGQLLINNLSQIDYVVNRHGGRYPPNDIGHAERYISVGDGFDEVQIRNLAYYAHLDTVEENAIDVDVGIKIFTKLNLSRGLPIPIAIHYRYDPNVPGSRERTVVKARRIYNAIKERFSSLDEQNLLQFRLSVQAQDIGSPIEEVASA
notes: CsoSCA, beta-carbonic anhydrase of the alpha-carboxysome, H. neapolitanus; also called CsoSCA-MBP-his; C-terminal MBP tagged CsoSCA; source: E. coli, purified (His-tag purification, size exclusion chromatography); not shown: MBP, C-terminal, kept

In data set [1] the target is T4, Rubisco-strep (CbbL8S8) from Halothiobacillus neapolitanus (H. neapolitanus, UniProt O85040 1-473; P45686 1-110).
T4 construct: Rubisco large subunit CbbL, Halothiobacillus neapolitanus; Rubisco small subunit CbbS, Halothiobacillus neapolitanus; also called strep-Rubisco; source: E. coli (BL21-A1 or BW25113, see Dataset S4), co-expressed with GroEL/ES, purified (StrepTrap); copies: 8 + 8
Briefly: SEC; Superose 6 Increase 3.2/300, 20 mM Tris pH 7.5, 150 mM NaCl, 4 °C; NTD1-53-sfGFP:CbbL8S8 mixed 32:1; A280 and A485 monitored. The conditions noted are these: both partners purified.

The target of the data set “NTD_(1-53)-sfGFP” is B5. Briefly: BLI; 5 μg/mL NTD_(1-53)-sfGFP-His (or point mutant) immobilised on Ni-NTA biosensors; strep-Rubisco (WT 250–3.9 nM, or mutant) as prey; 25 mM Tris pH 7.5, 70 mM NaCl, 0.01% Triton X100; 1:2 (Bivalent Analyte) binding model. As to conditions: both partners purified. (Biolayer interferometry detects binding as a change in optical thickness at a sensor tip.)

The next data set deals with T1, NTD_(1-53)-sfGFP P22A. Described as above. As to conditions: both partners purified.
For another data set, the target named is T2, NTD_(1-53)-sfGFP R23A. The data set is described as above. The conditions noted are these: both partners purified.
Data set [2] concerns the molecule itself. As to the kind of experiment: cryo-EM structure; 0.5 μM Rubisco-strep with 0.5 mM NTD_(1-50) peptide; 25 mM Tris pH 7.5, 80 mM NaCl, 2% glycerol; two reconstructions (State-1, State-2), D4 symmetry.
Data set [3] concerns the target B2. As to the kind of experiment: SEC; NTD_(1-53)-sfGFP and Rubisco-strep mixed 32:1 (NTD_(1-53)-sfGFP:CbbL8S8); Superose 6 Increase 3.2/300; 20 mM Tris pH 7.5, 150 mM NaCl, 4 °C; A280 and A485. As to conditions: both partners purified.
Data set [4] addresses B2. As to the kind of experiment: cryo-EM structure; 0.5 μM Rubisco-strep with 0.5 mM NTD_(1-50) peptide; 25 mM Tris pH 7.5, 80 mM NaCl, 2% glycerol; two reconstructions (State-1, State-2), D4 symmetry. As to conditions: both partners purified.
Data set [5] concerns the target T3, CbbS, Rubisco small subunit (as in …). The data set is described as above. As to conditions: both partners purified.
Data set [6] concerns the target T5, biotinylated Rubisco (H. neapolitanus CbbL8S8) (H. neapolitanus, UniProt O85040 1-473; P45686 1-110, biotin (sites and subunit not stated)).
T5 construct: Rubisco large subunit CbbL, H. neapolitanus, alpha-carboxysomal Form IA; Rubisco small subunit CbbS, H. neapolitanus; Held on streptavidin sensors; how it was biotinylated is in the SI Appendix methods; source: E. coli, coexpressed with GroEL/ES, purified (Strep-tag purification), biotinylated; copies: 8 + 8
Briefly: BLI; biotinylated Rubisco immobilised on streptavidin biosensors; 62.5–2.0 nM CsoSCA-MBP as prey; 25 mM Tris pH 7.5, 125 mM NaCl, 0.01% Triton X100; 1:1 binding model; triplicate. As to conditions: both partners purified.

On to B1, for which the binding result in [1] is given as “binds”.

Consider B2, for which, in the data set with NTD_(1-53)-sfGFP, the “KD2 (second set of the 1:2 fit)” value is 80 ± 1 nM, the “KD (first set of the 1:2 fit)” value turned out to be 33 ± 0.4 nM, the “koff2 (second set of the 1:2 fit)” value was determined as 0.11 s⁻¹ and the “koff (first set of the 1:2 fit)” value was found to be 0.0069 s⁻¹. Further, in the data set with NTD_(1-53)-sfGFP, the “kon2 (second set of the 1:2 fit)” value worked out at 1.4e+06 M⁻¹ s⁻¹ and the “kon (first set of the 1:2 fit)” value came out at 210000 M⁻¹ s⁻¹. For the same molecule, in the data set with NTD_(1-53)-sfGFP P22A, the “KD2 (second set of the 1:2 fit)” value amounted to 6.5 ± 0.4 µM, the “KD (first set of the 1:2 fit)” value was 18000 nM, the “koff2 (second set of the 1:2 fit)” value was found to be 0.44 s⁻¹ and the “koff (first set of the 1:2 fit)” value is 0.044 s⁻¹. Further, in the data set with NTD_(1-53)-sfGFP P22A, the “kon2 (second set of the 1:2 fit)” value was 68000 M⁻¹ s⁻¹ and the “kon (first set of the 1:2 fit)” value stood at 2400 M⁻¹ s⁻¹. In the data set with NTD_(1-53)-sfGFP R23A, the “KD2 (second set of the 1:2 fit)” value stood at 130 ± 2 nM, the “KD (first set of the 1:2 fit)” value was determined as 17 ± 0.2 nM, the “koff2 (second set of the 1:2 fit)” value stood at 0.061 s⁻¹ and the “koff (first set of the 1:2 fit)” value worked out at 0.0033 s⁻¹. Also, in the data set with NTD_(1-53)-sfGFP R23A, the “kon2 (second set of the 1:2 fit)” value was 460000 M⁻¹ s⁻¹ and the “kon (first set of the 1:2 fit)” value stood at 190000 M⁻¹ s⁻¹.

For the molecule B3, the binding result in data set [2] is recorded as “binds”.

Take B4: in the data set with NTD_(1-53)-sfGFP, the “KD2 (second set of the 1:2 fit)” value stood at 820 ± 11 nM, the “KD (first set of the 1:2 fit)” value stood at 320 ± 6 nM, the “koff2 (second set of the 1:2 fit)” value came to 0.15 s⁻¹ and the “koff (first set of the 1:2 fit)” value was determined as 0.0089 s⁻¹. In the data set with NTD_(1-53)-sfGFP, the “kon2 (second set of the 1:2 fit)” value came out at 180000 M⁻¹ s⁻¹ and the “kon (first set of the 1:2 fit)” value was found to be 28000 M⁻¹ s⁻¹.

Take B5: the binding result in data set [3] is “binds”.

For the molecule B6, in the data set with NTD_(1-53)-sfGFP, the “KD2 (second set of the 1:2 fit)” value turned out to be 1100 ± 14 nM, the “KD (first set of the 1:2 fit)” value stood at 400 ± 10 nM, the “koff2 (second set of the 1:2 fit)” value was 0.15 s⁻¹ and the “koff (first set of the 1:2 fit)” value is 0.0059 s⁻¹. Further, in the data set with NTD_(1-53)-sfGFP, the “kon2 (second set of the 1:2 fit)” value came out at 130000 M⁻¹ s⁻¹ and the “kon (first set of the 1:2 fit)” value was found to be 15000 M⁻¹ s⁻¹.

For orientation: stoichiometry N means a count of units in the complex or per binding partner. On to B7, for which, in [4], the “stoichiometry N” value is 8. In data set [5], the binding result was “binds”.

As a reminder, the Kd is the concentration at which binding is half-saturated. Low values mean tighter binding, high ones weaker binding. In turn, B8 came in with a Kd in data set [6] of 1.2 ± 0.1 nM.

Source of the values: article PMC10614612, “Identification of a carbonic anhydrase–Rubisco complex within the alpha-carboxysome” (Proceedings of the National Academy of Sciences of the …, 2023).
